Assay results taken from publication PMC10397247.

Assays:
Assay in all cases: two-hybrid library CCmax;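 further: natural log of median RNA to DNA barcode read ratio; higher means stronger binding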
Conditions in all cases: mean of both orientations
[1] = target: T1, 4H3330-AA
T1 chain: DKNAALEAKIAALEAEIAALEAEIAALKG

[2] = target: T2, APC2405-AA
T2 chain: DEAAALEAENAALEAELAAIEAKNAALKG

[3] = target: T3, 4H2148-AA
T3 chain: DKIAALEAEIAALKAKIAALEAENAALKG

[4] = target: T4, 4H716-AA
T4 chain: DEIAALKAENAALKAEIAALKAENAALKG

[5] = target: T5, 4H2143-AA
T5 chain: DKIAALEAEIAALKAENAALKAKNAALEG

[6] = target: T6, 4H807-AA
T6 chain: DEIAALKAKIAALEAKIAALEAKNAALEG

[7] = target: T7, APC4011-AA
T7 chain: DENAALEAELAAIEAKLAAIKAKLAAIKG

[8] = target: T8, P6-AA-12HAA-E
T8 chain: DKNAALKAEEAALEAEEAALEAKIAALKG

[9] = target: T9, P6-AA-12HAA-S
T9 chain: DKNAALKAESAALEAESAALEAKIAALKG

[10] = target: T10, P5-AA-12HGe-T
T10 chain: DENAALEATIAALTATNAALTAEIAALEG

[11] = target: T11, P5-AA-12HGe-R
T11 chain: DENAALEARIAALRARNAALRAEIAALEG

[12] = target: T12, P5-AA-1HGe-A
T12 chain: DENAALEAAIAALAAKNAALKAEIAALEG

[13] = target: T13, P5-AA-1HGe-D
T13 chain: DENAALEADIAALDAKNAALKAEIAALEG

[14] = target: T14, P5-AA-1HAA-D
T14 chain: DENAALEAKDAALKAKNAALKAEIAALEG

[15] = target: T15, P5-AA-1HAA-V
T15 chain: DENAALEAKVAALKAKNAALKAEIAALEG

[16] = target: T16, P5-AA-1HGe-M
T16 chain: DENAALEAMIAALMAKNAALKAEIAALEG

[17] = target: T17, P5-AA-1HGe-Y
T17 chain: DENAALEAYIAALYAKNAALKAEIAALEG

[18] = target: T18, P5-AA-1HAA-A
T18 chain: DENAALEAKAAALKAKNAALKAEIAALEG

[19] = target: T19, O7-AA
T19 chain: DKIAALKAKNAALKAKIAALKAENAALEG

[20] = target: T20, O1-AA
T20 chain: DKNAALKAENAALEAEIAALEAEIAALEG

[21] = target: T21, O3-AA
T21 chain: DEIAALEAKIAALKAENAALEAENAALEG

[22] = target: T22, 4H2750-AA
T22 chain: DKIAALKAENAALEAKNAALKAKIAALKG

[23] = target: T23, 4H2600-AA
T23 chain: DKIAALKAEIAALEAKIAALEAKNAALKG

[24] = target: T24, 4H2758-AA
T24 chain: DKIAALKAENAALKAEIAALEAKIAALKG

[25] = target: T25, 4H2935-AA
T25 chain: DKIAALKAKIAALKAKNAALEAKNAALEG

[26] = target: T26, 4H2687-AA
T26 chain: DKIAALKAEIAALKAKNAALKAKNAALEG

[27] = target: T27, 4H278-AA
T27 chain: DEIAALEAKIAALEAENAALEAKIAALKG

[28] = target: T28, 4H775-AA
T28 chain: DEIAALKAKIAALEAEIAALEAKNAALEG

[29] = target: T29, 4H2536-AA
T29 chain: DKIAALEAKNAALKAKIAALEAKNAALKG

[30] = target: T30, 4H2646-AA
T30 chain: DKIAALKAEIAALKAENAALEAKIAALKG

[31] = target: T31, 4H3121-AA
T31 chain: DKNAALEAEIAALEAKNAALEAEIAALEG

[32] = target: T32, 4H497-AA
T32 chain: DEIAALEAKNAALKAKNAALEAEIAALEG

[33] = target: T33, 4H675-AA
T33 chain: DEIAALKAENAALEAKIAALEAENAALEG

[34] = target: T34, 4H478-AA
T34 chain: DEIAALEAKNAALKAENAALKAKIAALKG

[35] = target: T35, 4H3628-AA
T35 chain: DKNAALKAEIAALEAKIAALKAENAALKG

[36] = target: T36, 4H3029-AA
T36 chain: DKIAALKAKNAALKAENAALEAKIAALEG

[37] = target: T37, 4H1809-AA
T37 chain: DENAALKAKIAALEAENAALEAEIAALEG

[38] = target: T38, P6-AA-12HGe-R
T38 chain: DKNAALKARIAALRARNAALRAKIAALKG

[39] = target: T39, P6-AA-12HGe-M
T39 chain: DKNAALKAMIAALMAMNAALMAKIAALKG

[40] = target: T40, P6-AA-12HGe-W
T40 chain: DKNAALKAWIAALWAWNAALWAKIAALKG

[41] = target: T41, P6-AA-1HAA-S
T41 chain: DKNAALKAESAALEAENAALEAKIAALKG

[42] = target: T42, P6-AA-1HAA-R
T42 chain: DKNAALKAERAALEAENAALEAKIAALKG

Binder: DENAALKAKIAALEAKNAALEAKIAALEG [4H1845-AA]
- interaction score [1]: -1.3
- interaction score [2]: -1.12
- interaction score [3]: -1.61
- interaction score [4]: -1.81
- interaction score [5]: -1.68
- interaction score [6]: -1.58
- interaction score [7]: -1.65

Binder: DENAALEAKIAALKAKIAALKAEIAALEG [4H1385-AA]
- interaction score [8]: 2.36
- interaction score [9]: 1.43

Binder: DKNAALKAEIAALEAENAALEAKIAALKG [4H3606-AA]
- interaction score [10]: 1.23
- interaction score [11]: 1.65
- interaction score [12]: 2.06
- interaction score [13]: 1.14
- interaction score [14]: 1.43
- interaction score [15]: 2.23
- interaction score [16]: 2.26
- interaction score [17]: 2.36
- interaction score [18]: 2.07

Binder: DEIAALEAENAALEAKIAALKAENAALEG [4H171-AA]
- interaction score [19]: 1.08
- interaction score [20]: -1.52
- interaction score [21]: -1.73

Binder: DENAALEAENAALKAKIAALKAEIAALEG [4H1257-AA]
- interaction score [22]: -1.22
- interaction score [23]: 0.518

Binder: DENAALEAKIAALKAEIAALEAKIAALKG [4H1350-AA]
- interaction score [24]: -0.48
- interaction score [25]: -0.765
- interaction score [26]: -0.889
- interaction score [27]: 0.443
- interaction score [28]: 1.63
- interaction score [29]: -0.188
- interaction score [30]: -0.455

Binder: DENAALEAEIAALEAKIAALEAKNAALKG [4H1064-AA]
- interaction score [31]: -1.6
- interaction score [32]: -1.3
- interaction score [33]: -1.16
- interaction score [34]: -1.56
- interaction score [35]: 1.07
- interaction score [36]: -1.16
- interaction score [37]: -1.44

Binder: DENAALEAKIAALKAKNAALKAEIAALEG [4H1401-AA]
- interaction score [38]: -1.02
- interaction score [39]: 0.2
- interaction score [40]: -1.79
- interaction score [41]: 1.9
- interaction score [42]: 1.83
